Starred links: 1 amine or outer side, 2 acyl side, 3 side chain; linkers in the order of their positions; H or OH if unused. Non-standard residues stand in square brackets, D forms with d. *: point of attachment. C18 diacid = O=C(O)CCCCCCCCCCCCCCCCC(=O)*; dBip = N[C@H](Cc1ccc(-c2ccccc2)cc1)C(=O)O; Oic = O=C(O)[C@@H]1C[C@@H]2CCCC[C@@H]2N1; Phe(4-Cl) = N[C@@H](Cc1ccc(Cl)cc1)C(=O)O; dPhe(4-Cl) = N[C@H](Cc1ccc(Cl)cc1)C(=O)O; Heptadecanoyl = CCCCCCCCCCCCCCCCC(=O)*; Phe(4-I) = N[C@@H](Cc1ccc(I)cc1)C(=O)O; γGlu = O=C(O)[C@H](CCC(=O)[*:2])N[*:1]; Pentadecanoyl = CCCCCCCCCCCCCCC(=O)*; NMeR = CN[C@@H](CCCNC(=N)N)C(=O)O; Tridecanoyl = CCCCCCCCCCCCC(=O)*; hArg = N=C(N)NCCCC[C@H](N)C(=O)O; dTic = O=C(O)[C@H]1Cc2ccccc2CN1; Cha = N[C@@H](CC1CCCCC1)C(=O)O; NMeL = CN[C@@H](CC(C)C)C(=O)O; Nle = CCCC[C@H](N)C(=O)O; Deg = CCC(N)(CC)C(=O)O; AEEA = NCCOCCOCC(=O)O; Aib = CC(C)(N)C(=O)O

For one assay, the target named is T1, rat APJ receptor (rat, UniProt Q9JHG3 1-377).
T1 sequence (looked up): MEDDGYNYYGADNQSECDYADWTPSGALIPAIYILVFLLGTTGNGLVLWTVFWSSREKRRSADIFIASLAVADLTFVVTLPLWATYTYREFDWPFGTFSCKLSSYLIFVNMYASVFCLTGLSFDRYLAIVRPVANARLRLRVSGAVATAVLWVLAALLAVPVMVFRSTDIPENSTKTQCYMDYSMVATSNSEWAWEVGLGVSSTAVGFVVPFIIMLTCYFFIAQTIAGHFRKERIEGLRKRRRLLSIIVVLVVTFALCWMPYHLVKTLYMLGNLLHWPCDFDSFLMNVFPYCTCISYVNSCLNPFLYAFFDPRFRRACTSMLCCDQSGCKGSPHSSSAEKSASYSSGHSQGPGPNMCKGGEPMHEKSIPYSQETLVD
As to the kind of experiment: cell-based or functional assay.

Another assay deals with T2, human APJ receptor (human, UniProt P35414 1-380).
T2 sequence (looked up): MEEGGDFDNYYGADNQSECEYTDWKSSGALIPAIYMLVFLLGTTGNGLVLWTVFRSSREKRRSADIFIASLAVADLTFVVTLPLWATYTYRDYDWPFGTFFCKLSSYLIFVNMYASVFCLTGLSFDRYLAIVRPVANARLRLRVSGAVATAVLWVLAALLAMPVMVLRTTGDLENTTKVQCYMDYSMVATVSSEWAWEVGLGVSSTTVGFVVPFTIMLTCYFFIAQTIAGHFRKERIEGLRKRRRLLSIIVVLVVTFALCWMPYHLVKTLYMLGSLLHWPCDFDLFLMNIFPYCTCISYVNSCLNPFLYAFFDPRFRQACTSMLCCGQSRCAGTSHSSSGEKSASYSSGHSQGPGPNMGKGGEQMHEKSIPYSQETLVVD
As to the kind of experiment: cell-based or functional assay.

B1: apelin polypeptide SEQ ID NO: 267 (peptide)
peptide: Tridecanoyl-[γGlu][AEEA][AEEA]Q[dR]P[NMeR][Cha]SHKG[Oic][Nle]P[Phe(4-Cl)]-OH
SMILES: CCCCCCCCCCCCC(=O)N[C@@H](CCC(=O)NCCOCCOCC(=O)NCCOCCOCC(=O)N[C@@H](CCC(N)=O)C(=O)N[C@H](CCCNC(=N)N)C(=O)N1CCC[C@H]1C(=O)N(C)[C@@H](CCCNC(=N)N)C(=O)N[C@@H](CC1CCCCC1)C(=O)N[C@@H](CO)C(=O)N[C@@H](Cc1c[nH]cn1)C(=O)N[C@@H](CCCCN)C(=O)NCC(=O)N1[C@H](C(=O)N[C@@H](CCCC)C(=O)N2CCC[C@H]2C(=O)N[C@@H](Cc2ccc(Cl)cc2)C(=O)O)C[C@@H]2CCCC[C@@H]21)C(=O)O
For the molecule B1, the “EC50 Rat APJ Receptor” value in the assay with rat APJ receptor was found to be 17.6 nM. Also, in the assay with human APJ receptor, the “EC50 Human APJ Receptor” value was found to be 0.753 nM.

B2: apelin polypeptide SEQ ID NO: 263 (peptide)
peptide: Heptadecanoyl-[γGlu][AEEA][AEEA][hArg][dR]Q[hArg]P[dR][NMeL]SHKG[Oic][Phe(4-I)]P[dBip]-OH
SMILES: CCCCCCCCCCCCCCCCC(=O)N[C@@H](CCC(=O)NCCOCCOCC(=O)NCCOCCOCC(=O)N[C@@H](CCCCNC(=N)N)C(=O)N[C@H](CCCNC(=N)N)C(=O)N[C@@H](CCC(N)=O)C(=O)N[C@@H](CCCCNC(=N)N)C(=O)N1CCC[C@H]1C(=O)N[C@H](CCCNC(=N)N)C(=O)N(C)[C@@H](CC(C)C)C(=O)N[C@@H](CO)C(=O)N[C@@H](Cc1c[nH]cn1)C(=O)N[C@@H](CCCCN)C(=O)NCC(=O)N1[C@H](C(=O)N[C@@H](Cc2ccc(I)cc2)C(=O)N2CCC[C@H]2C(=O)N[C@H](Cc2ccc(-c3ccccc3)cc2)C(=O)O)C[C@@H]2CCCC[C@@H]21)C(=O)O
With B2, the “EC50 Rat APJ Receptor” value with rat APJ receptor turned out to be 5.91 nM. Also, the “EC50 Human APJ Receptor” value with human APJ receptor was determined as 3.99 nM.

B3: apelin polypeptide SEQ ID NO: 264 (peptide)
peptide: {C18 diacid}-[γGlu][AEEA][AEEA][hArg][dR]Q[hArg]P[dR][NMeL]SHKG[Oic][Phe(4-I)]P[dBip]-OH
SMILES: CC(C)C[C@@H](C(=O)N[C@@H](CO)C(=O)N[C@@H](Cc1c[nH]cn1)C(=O)N[C@@H](CCCCN)C(=O)NCC(=O)N1[C@H](C(=O)N[C@@H](Cc2ccc(I)cc2)C(=O)N2CCC[C@H]2C(=O)N[C@H](Cc2ccc(-c3ccccc3)cc2)C(=O)O)C[C@@H]2CCCC[C@@H]21)N(C)C(=O)[C@@H](CCCNC(=N)N)NC(=O)[C@@H]1CCCN1C(=O)[C@H](CCCCNC(=N)N)NC(=O)[C@H](CCC(N)=O)NC(=O)[C@@H](CCCNC(=N)N)NC(=O)[C@H](CCCCNC(=N)N)NC(=O)COCCOCCNC(=O)COCCOCCNC(=O)CC[C@H](NC(=O)CCCCCCCCCCCCCCCCC(=O)O)C(=O)O
In the case of B3, in the assay with rat APJ receptor, the “EC50 Rat APJ Receptor” value was 193 nM. In addition, the “EC50 Human APJ Receptor” value in the assay with human APJ receptor was 145 nM.

B4: apelin polypeptide SEQ ID NO: 271 (peptide)
peptide: Tridecanoyl-[γGlu][AEEA][AEEA][dQ][hArg]P[dR][Cha]SHKG[Oic][Nle][Deg][Phe(4-Cl)]-OH
SMILES: CCCCCCCCCCCCC(=O)N[C@@H](CCC(=O)NCCOCCOCC(=O)NCCOCCOCC(=O)N[C@H](CCC(N)=O)C(=O)N[C@@H](CCCCNC(=N)N)C(=O)N1CCC[C@H]1C(=O)N[C@H](CCCNC(=N)N)C(=O)N[C@@H](CC1CCCCC1)C(=O)N[C@@H](CO)C(=O)N[C@@H](Cc1c[nH]cn1)C(=O)N[C@@H](CCCCN)C(=O)NCC(=O)N1[C@H](C(=O)N[C@@H](CCCC)C(=O)NC(CC)(CC)C(=O)N[C@@H](Cc2ccc(Cl)cc2)C(=O)O)C[C@@H]2CCCC[C@@H]21)C(=O)O
Regarding B4, the “EC50 Rat APJ Receptor” value in the assay with rat APJ receptor amounted to 7.88 nM. The “EC50 Human APJ Receptor” value with human APJ receptor amounted to 11.8 nM.

B5: apelin polypeptide SEQ ID NO: 266 (peptide)
peptide: Tridecanoyl-[γGlu][AEEA][AEEA]Q[dR]P[dR][Cha]SHKG[Oic][Nle]P[dPhe(4-Cl)]-OH
SMILES: CCCCCCCCCCCCC(=O)N[C@@H](CCC(=O)NCCOCCOCC(=O)NCCOCCOCC(=O)N[C@@H](CCC(N)=O)C(=O)N[C@H](CCCNC(=N)N)C(=O)N1CCC[C@H]1C(=O)N[C@H](CCCNC(=N)N)C(=O)N[C@@H](CC1CCCCC1)C(=O)N[C@@H](CO)C(=O)N[C@@H](Cc1c[nH]cn1)C(=O)N[C@@H](CCCCN)C(=O)NCC(=O)N1[C@H](C(=O)N[C@@H](CCCC)C(=O)N2CCC[C@H]2C(=O)N[C@H](Cc2ccc(Cl)cc2)C(=O)O)C[C@@H]2CCCC[C@@H]21)C(=O)O
As to B5, the “EC50 Rat APJ Receptor” value with rat APJ receptor was determined as 33.2 nM. Also, the “EC50 Human APJ Receptor” value in the assay with human APJ receptor was 5.81 nM.

B6: apelin polypeptide SEQ ID NO: 270 (peptide)
peptide: Tridecanoyl-[γGlu][AEEA][AEEA][dQ][hArg]P[dR][Cha]SHKG[Oic][Nle][Aib][Phe(4-Cl)]-OH
SMILES: CCCCCCCCCCCCC(=O)N[C@@H](CCC(=O)NCCOCCOCC(=O)NCCOCCOCC(=O)N[C@H](CCC(N)=O)C(=O)N[C@@H](CCCCNC(=N)N)C(=O)N1CCC[C@H]1C(=O)N[C@H](CCCNC(=N)N)C(=O)N[C@@H](CC1CCCCC1)C(=O)N[C@@H](CO)C(=O)N[C@@H](Cc1c[nH]cn1)C(=O)N[C@@H](CCCCN)C(=O)NCC(=O)N1[C@H](C(=O)N[C@@H](CCCC)C(=O)NC(C)(C)C(=O)N[C@@H](Cc2ccc(Cl)cc2)C(=O)O)C[C@@H]2CCCC[C@@H]21)C(=O)O
As to B6, the “EC50 Rat APJ Receptor” value with rat APJ receptor was 1.49 nM. In addition, in the assay with human APJ receptor, the “EC50 Human APJ Receptor” value came to 1.76 nM.

B7: apelin polypeptide SEQ ID NO: 269 (peptide)
peptide: Tridecanoyl-[γGlu][AEEA][AEEA][dQ][hArg]P[dR][Cha]SHKG[Oic][Nle]P[dTic]-OH
SMILES: CCCCCCCCCCCCC(=O)N[C@@H](CCC(=O)NCCOCCOCC(=O)NCCOCCOCC(=O)N[C@H](CCC(N)=O)C(=O)N[C@@H](CCCCNC(=N)N)C(=O)N1CCC[C@H]1C(=O)N[C@H](CCCNC(=N)N)C(=O)N[C@@H](CC1CCCCC1)C(=O)N[C@@H](CO)C(=O)N[C@@H](Cc1c[nH]cn1)C(=O)N[C@@H](CCCCN)C(=O)NCC(=O)N1[C@H](C(=O)N[C@@H](CCCC)C(=O)N2CCC[C@H]2C(=O)N2Cc3ccccc3C[C@@H]2C(=O)O)C[C@@H]2CCCC[C@@H]21)C(=O)O
For the molecule B7, the “EC50 Rat APJ Receptor” value in the assay with rat APJ receptor was found to be 52.3 nM. In addition, the “EC50 Human APJ Receptor” value with human APJ receptor amounted to 73 nM.

B8: apelin polypeptide SEQ ID NO: 265 (peptide)
peptide: Tridecanoyl-[γGlu][AEEA][AEEA][dQ][hArg]P[dR][Cha]SHKG[Oic][Nle]P[dPhe(4-Cl)]-OH
SMILES: CCCCCCCCCCCCC(=O)N[C@@H](CCC(=O)NCCOCCOCC(=O)NCCOCCOCC(=O)N[C@H](CCC(N)=O)C(=O)N[C@@H](CCCCNC(=N)N)C(=O)N1CCC[C@H]1C(=O)N[C@H](CCCNC(=N)N)C(=O)N[C@@H](CC1CCCCC1)C(=O)N[C@@H](CO)C(=O)N[C@@H](Cc1c[nH]cn1)C(=O)N[C@@H](CCCCN)C(=O)NCC(=O)N1[C@H](C(=O)N[C@@H](CCCC)C(=O)N2CCC[C@H]2C(=O)N[C@H](Cc2ccc(Cl)cc2)C(=O)O)C[C@@H]2CCCC[C@@H]21)C(=O)O
For B8, in the assay with rat APJ receptor, the “EC50 Rat APJ Receptor” value came to 14.5 nM. Also, the “EC50 Human APJ Receptor” value with human APJ receptor was 1.2 nM.
For Ac-[hArg][hArg]Q[dR]P[dR][NMeL]SHKG[Oic][Phe(4-I)]P[dBip]-OH [apelin polypeptide SEQ ID NO: 20] the same measures were 0.706 nM and 0.189 nM.

B9: apelin polypeptide SEQ ID NO: 262 (peptide)
peptide: Pentadecanoyl-[γGlu][AEEA][AEEA][hArg][dR]Q[hArg]P[dR][NMeL]SHKG[Oic][Phe(4-I)]P[dBip]-OH
SMILES: CCCCCCCCCCCCCCC(=O)N[C@@H](CCC(=O)NCCOCCOCC(=O)NCCOCCOCC(=O)N[C@@H](CCCCNC(=N)N)C(=O)N[C@H](CCCNC(=N)N)C(=O)N[C@@H](CCC(N)=O)C(=O)N[C@@H](CCCCNC(=N)N)C(=O)N1CCC[C@H]1C(=O)N[C@H](CCCNC(=N)N)C(=O)N(C)[C@@H](CC(C)C)C(=O)N[C@@H](CO)C(=O)N[C@@H](Cc1c[nH]cn1)C(=O)N[C@@H](CCCCN)C(=O)NCC(=O)N1[C@H](C(=O)N[C@@H](Cc2ccc(I)cc2)C(=O)N2CCC[C@H]2C(=O)N[C@H](Cc2ccc(-c3ccccc3)cc2)C(=O)O)C[C@@H]2CCCC[C@@H]21)C(=O)O
With B9, the “EC50 Rat APJ Receptor” value in the assay with rat APJ receptor is 6.71 nM. Further, the “EC50 Human APJ Receptor” value with human APJ receptor was 4.42 nM.

B10: apelin polypeptide SEQ ID NO: 261 (peptide)
peptide: Tridecanoyl-[γGlu][AEEA][AEEA][hArg][dR]Q[hArg]P[dR][NMeL]SHKG[Oic][Phe(4-I)]P[dBip]-OH
SMILES: CCCCCCCCCCCCC(=O)N[C@@H](CCC(=O)NCCOCCOCC(=O)NCCOCCOCC(=O)N[C@@H](CCCCNC(=N)N)C(=O)N[C@H](CCCNC(=N)N)C(=O)N[C@@H](CCC(N)=O)C(=O)N[C@@H](CCCCNC(=N)N)C(=O)N1CCC[C@H]1C(=O)N[C@H](CCCNC(=N)N)C(=O)N(C)[C@@H](CC(C)C)C(=O)N[C@@H](CO)C(=O)N[C@@H](Cc1c[nH]cn1)C(=O)N[C@@H](CCCCN)C(=O)NCC(=O)N1[C@H](C(=O)N[C@@H](Cc2ccc(I)cc2)C(=O)N2CCC[C@H]2C(=O)N[C@H](Cc2ccc(-c3ccccc3)cc2)C(=O)O)C[C@@H]2CCCC[C@@H]21)C(=O)O
Take B10: in the assay with rat APJ receptor, the “EC50 Rat APJ Receptor” value was 9.38 nM. Further, the “EC50 Human APJ Receptor” value with human APJ receptor came out at 4.74 nM.

(Values after patent US10941182 (Amgen, dated 2021).)
